Numbered stars: 1 amine (or outer) side, 2 acyl side, 3 side chain; on linkers, the order of the positions; unused ones are H or OH. Bridge positions count the residues as written; N and C are the ends. Square brackets hold non-standard residues; d marks the D form. Side chains are listed from the residue outwards. Ends that are not written are not given here. * marks the point of attachment. C18 diacid = O=C(O)CCCCCCCCCCCCCCCCC(=O)*; γGlu = O=C(O)[C@H](CCC(=O)[*:2])N[*:1]; Aib = CC(C)(N)C(=O)O
T1: human calcitonin receptor (human, UniProt P30988 25-474)
T1 sequence (looked up): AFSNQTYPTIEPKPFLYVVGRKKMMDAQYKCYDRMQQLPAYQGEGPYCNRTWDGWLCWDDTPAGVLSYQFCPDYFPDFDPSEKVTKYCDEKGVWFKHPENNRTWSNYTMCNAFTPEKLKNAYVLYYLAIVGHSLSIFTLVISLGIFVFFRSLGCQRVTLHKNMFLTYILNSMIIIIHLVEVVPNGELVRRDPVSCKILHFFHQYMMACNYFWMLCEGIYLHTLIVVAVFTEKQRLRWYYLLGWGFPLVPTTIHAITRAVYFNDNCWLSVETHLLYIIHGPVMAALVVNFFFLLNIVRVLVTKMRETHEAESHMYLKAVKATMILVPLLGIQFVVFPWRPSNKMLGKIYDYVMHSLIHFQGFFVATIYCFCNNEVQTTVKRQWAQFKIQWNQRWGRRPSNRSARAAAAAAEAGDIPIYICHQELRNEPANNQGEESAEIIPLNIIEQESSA

T2: human amylin receptor (calcitonin receptor co-expressed with receptor activity modifying protein, RAMP3) (human, UniProt P30988 25-474; O60896 24-148)
T2 sequence (looked up) 1: T1 sequence (looked up)
T2 sequence (looked up) 2: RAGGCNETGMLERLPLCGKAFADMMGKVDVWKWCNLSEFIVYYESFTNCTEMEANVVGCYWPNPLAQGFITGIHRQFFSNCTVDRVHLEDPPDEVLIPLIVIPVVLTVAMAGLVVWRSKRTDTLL

B1: Peptide 65 (SEQ ID NO: 65) (peptide)
peptide: K([γGlu-C18 diacid])KCNTATCATQRLANFLRHSS[Aib]NFGPILPPTNVGSNTY-NH2
modifications: disulfide 3-8; N-terminus assumed
SMILES: CC[C@H](C)[C@H](NC(=O)[C@@H]1CCCN1C(=O)CNC(=O)[C@H](Cc1ccccc1)NC(=O)[C@H](CC(N)=O)NC(=O)C(C)(C)NC(=O)[C@H](CO)NC(=O)[C@H](CO)NC(=O)[C@H](Cc1c[nH]cn1)NC(=O)[C@H](CCCNC(=N)N)NC(=O)[C@H](CC(C)C)NC(=O)[C@H](Cc1ccccc1)NC(=O)[C@H](CC(N)=O)NC(=O)[C@H](C)NC(=O)[C@H](CC(C)C)NC(=O)[C@H](CCCNC(=N)N)NC(=O)[C@H](CCC(N)=O)NC(=O)[C@@H](NC(=O)[C@H](C)NC(=O)[C@@H]1CSSC[C@H](NC(=O)[C@H](CCCCN)NC(=O)[C@@H](N)CCCCNC(=O)CC[C@H](NC(=O)CCCCCCCCCCCCCCCCC(=O)O)C(=O)O)C(=O)N[C@@H](CC(N)=O)C(=O)N[C@@H]([C@@H](C)O)C(=O)N[C@@H](C)C(=O)N[C@@H]([C@@H](C)O)C(=O)N1)[C@@H](C)O)C(=O)N[C@@H](CC(C)C)C(=O)N1CCC[C@H]1C(=O)N1CCC[C@H]1C(=O)N[C@H](C(=O)N[C@@H](CC(N)=O)C(=O)N[C@H](C(=O)NCC(=O)N[C@@H](CO)C(=O)N[C@@H](CC(N)=O)C(=O)N[C@H](C(=O)N[C@@H](Cc1ccc(O)cc1)C(N)=O)[C@@H](C)O)C(C)C)[C@@H](C)O
B2: Peptide 64 (SEQ ID NO: 64) (peptide)
peptide: K([γGlu-C18 diacid])CNTATCATQRLANFLVHSS[Aib]NFGPILPPTNVGSRTY-NH2
modifications: disulfide 2-7; N-terminus assumed
SMILES: CC[C@H](C)[C@H](NC(=O)[C@@H]1CCCN1C(=O)CNC(=O)[C@H](Cc1ccccc1)NC(=O)[C@H](CC(N)=O)NC(=O)C(C)(C)NC(=O)[C@H](CO)NC(=O)[C@H](CO)NC(=O)[C@H](Cc1c[nH]cn1)NC(=O)[C@@H](NC(=O)[C@H](CC(C)C)NC(=O)[C@H](Cc1ccccc1)NC(=O)[C@H](CC(N)=O)NC(=O)[C@H](C)NC(=O)[C@H](CC(C)C)NC(=O)[C@H](CCCNC(=N)N)NC(=O)[C@H](CCC(N)=O)NC(=O)[C@@H](NC(=O)[C@H](C)NC(=O)[C@@H]1CSSC[C@H](NC(=O)[C@@H](N)CCCCNC(=O)CC[C@H](NC(=O)CCCCCCCCCCCCCCCCC(=O)O)C(=O)O)C(=O)N[C@@H](CC(N)=O)C(=O)N[C@@H]([C@@H](C)O)C(=O)N[C@@H](C)C(=O)N[C@@H]([C@@H](C)O)C(=O)N1)[C@@H](C)O)C(C)C)C(=O)N[C@@H](CC(C)C)C(=O)N1CCC[C@H]1C(=O)N1CCC[C@H]1C(=O)N[C@H](C(=O)N[C@@H](CC(N)=O)C(=O)N[C@H](C(=O)NCC(=O)N[C@@H](CO)C(=O)N[C@@H](CCCNC(=N)N)C(=O)N[C@H](C(=O)N[C@@H](Cc1ccc(O)cc1)C(N)=O)[C@@H](C)O)C(C)C)[C@@H](C)O
B3: Peptide 69 (SEQ ID NO: 69) (peptide)
peptide: K([γGlu-C18 diacid])KCNTATCATQRLANFLVHSS[Aib]NFGPILPPTRVGSNTY-NH2
modifications: disulfide 3-8; N-terminus assumed
SMILES: CC[C@H](C)[C@H](NC(=O)[C@@H]1CCCN1C(=O)CNC(=O)[C@H](Cc1ccccc1)NC(=O)[C@H](CC(N)=O)NC(=O)C(C)(C)NC(=O)[C@H](CO)NC(=O)[C@H](CO)NC(=O)[C@H](Cc1c[nH]cn1)NC(=O)[C@@H](NC(=O)[C@H](CC(C)C)NC(=O)[C@H](Cc1ccccc1)NC(=O)[C@H](CC(N)=O)NC(=O)[C@H](C)NC(=O)[C@H](CC(C)C)NC(=O)[C@H](CCCNC(=N)N)NC(=O)[C@H](CCC(N)=O)NC(=O)[C@@H](NC(=O)[C@H](C)NC(=O)[C@@H]1CSSC[C@H](NC(=O)[C@H](CCCCN)NC(=O)[C@@H](N)CCCCNC(=O)CC[C@H](NC(=O)CCCCCCCCCCCCCCCCC(=O)O)C(=O)O)C(=O)N[C@@H](CC(N)=O)C(=O)N[C@@H]([C@@H](C)O)C(=O)N[C@@H](C)C(=O)N[C@@H]([C@@H](C)O)C(=O)N1)[C@@H](C)O)C(C)C)C(=O)N[C@@H](CC(C)C)C(=O)N1CCC[C@H]1C(=O)N1CCC[C@H]1C(=O)N[C@H](C(=O)N[C@@H](CCCNC(=N)N)C(=O)N[C@H](C(=O)NCC(=O)N[C@@H](CO)C(=O)N[C@@H](CC(N)=O)C(=O)N[C@H](C(=O)N[C@@H](Cc1ccc(O)cc1)C(N)=O)[C@@H](C)O)C(C)C)[C@@H](C)O
B4: Peptide 68 (SEQ ID NO: 68) (peptide)
peptide: {C18 diacid-γGlu}-CNTATCATQRLANFLVHSS[Aib]NFGPILPPTRVGSNTY-NH2
modifications: disulfide 1-6
SMILES: CC[C@H](C)[C@H](NC(=O)[C@@H]1CCCN1C(=O)CNC(=O)[C@H](Cc1ccccc1)NC(=O)[C@H](CC(N)=O)NC(=O)C(C)(C)NC(=O)[C@H](CO)NC(=O)[C@H](CO)NC(=O)[C@H](Cc1c[nH]cn1)NC(=O)[C@@H](NC(=O)[C@H](CC(C)C)NC(=O)[C@H](Cc1ccccc1)NC(=O)[C@H](CC(N)=O)NC(=O)[C@H](C)NC(=O)[C@H](CC(C)C)NC(=O)[C@H](CCCNC(=N)N)NC(=O)[C@H](CCC(N)=O)NC(=O)[C@@H](NC(=O)[C@H](C)NC(=O)[C@@H]1CSSC[C@H](NC(=O)CC[C@H](NC(=O)CCCCCCCCCCCCCCCCC(=O)O)C(=O)O)C(=O)N[C@@H](CC(N)=O)C(=O)N[C@@H]([C@@H](C)O)C(=O)N[C@@H](C)C(=O)N[C@@H]([C@@H](C)O)C(=O)N1)[C@@H](C)O)C(C)C)C(=O)N[C@@H](CC(C)C)C(=O)N1CCC[C@H]1C(=O)N1CCC[C@H]1C(=O)N[C@H](C(=O)N[C@@H](CCCNC(=N)N)C(=O)N[C@H](C(=O)NCC(=O)N[C@@H](CO)C(=O)N[C@@H](CC(N)=O)C(=O)N[C@H](C(=O)N[C@@H](Cc1ccc(O)cc1)C(N)=O)[C@@H](C)O)C(C)C)[C@@H](C)O
B5: Peptide 67 (SEQ ID NO: 67) (peptide)
peptide: K([γGlu-γGlu-C18 diacid])CNTATCATQRLANFLVHSS[Aib]NFGPILPPTRVGSNTY-NH2
modifications: disulfide 2-7; N-terminus assumed
SMILES: CC[C@H](C)[C@H](NC(=O)[C@@H]1CCCN1C(=O)CNC(=O)[C@H](Cc1ccccc1)NC(=O)[C@H](CC(N)=O)NC(=O)C(C)(C)NC(=O)[C@H](CO)NC(=O)[C@H](CO)NC(=O)[C@H](Cc1c[nH]cn1)NC(=O)[C@@H](NC(=O)[C@H](CC(C)C)NC(=O)[C@H](Cc1ccccc1)NC(=O)[C@H](CC(N)=O)NC(=O)[C@H](C)NC(=O)[C@H](CC(C)C)NC(=O)[C@H](CCCNC(=N)N)NC(=O)[C@H](CCC(N)=O)NC(=O)[C@@H](NC(=O)[C@H](C)NC(=O)[C@@H]1CSSC[C@H](NC(=O)[C@@H](N)CCCCNC(=O)CC[C@H](NC(=O)CC[C@H](NC(=O)CCCCCCCCCCCCCCCCC(=O)O)C(=O)O)C(=O)O)C(=O)N[C@@H](CC(N)=O)C(=O)N[C@@H]([C@@H](C)O)C(=O)N[C@@H](C)C(=O)N[C@@H]([C@@H](C)O)C(=O)N1)[C@@H](C)O)C(C)C)C(=O)N[C@@H](CC(C)C)C(=O)N1CCC[C@H]1C(=O)N1CCC[C@H]1C(=O)N[C@H](C(=O)N[C@@H](CCCNC(=N)N)C(=O)N[C@H](C(=O)NCC(=O)N[C@@H](CO)C(=O)N[C@@H](CC(N)=O)C(=O)N[C@H](C(=O)N[C@@H](Cc1ccc(O)cc1)C(N)=O)[C@@H](C)O)C(C)C)[C@@H](C)O
B6: Peptide 66 (SEQ ID NO: 66) (peptide)
peptide: K([γGlu-γGlu-C18 diacid])KCNTATCATQRLANFLRHSS[Aib]NFGPILPPTNVGSNTY-NH2
modifications: disulfide 3-8; N-terminus assumed
SMILES: CC[C@H](C)[C@H](NC(=O)[C@@H]1CCCN1C(=O)CNC(=O)[C@H](Cc1ccccc1)NC(=O)[C@H](CC(N)=O)NC(=O)C(C)(C)NC(=O)[C@H](CO)NC(=O)[C@H](CO)NC(=O)[C@H](Cc1c[nH]cn1)NC(=O)[C@H](CCCNC(=N)N)NC(=O)[C@H](CC(C)C)NC(=O)[C@H](Cc1ccccc1)NC(=O)[C@H](CC(N)=O)NC(=O)[C@H](C)NC(=O)[C@H](CC(C)C)NC(=O)[C@H](CCCNC(=N)N)NC(=O)[C@H](CCC(N)=O)NC(=O)[C@@H](NC(=O)[C@H](C)NC(=O)[C@@H]1CSSC[C@H](NC(=O)[C@H](CCCCN)NC(=O)[C@@H](N)CCCCNC(=O)CC[C@H](NC(=O)CC[C@H](NC(=O)CCCCCCCCCCCCCCCCC(=O)O)C(=O)O)C(=O)O)C(=O)N[C@@H](CC(N)=O)C(=O)N[C@@H]([C@@H](C)O)C(=O)N[C@@H](C)C(=O)N[C@@H]([C@@H](C)O)C(=O)N1)[C@@H](C)O)C(=O)N[C@@H](CC(C)C)C(=O)N1CCC[C@H]1C(=O)N1CCC[C@H]1C(=O)N[C@H](C(=O)N[C@@H](CC(N)=O)C(=O)N[C@H](C(=O)NCC(=O)N[C@@H](CO)C(=O)N[C@@H](CC(N)=O)C(=O)N[C@H](C(=O)N[C@@H](Cc1ccc(O)cc1)C(N)=O)[C@@H](C)O)C(C)C)[C@@H](C)O

The binders below were run against T1, human calcitonin receptor (assay: cell-based or functional assay).

Binder	EC50 (cAMP production) [nM]
B1	6.4
B2	1.28
B3	1.57
B4	1.77
B5	4.01
B6	7.01

The binders below were run against T2, human amylin receptor (calcitonin …) (assay: cell-based or functional assay).

Binder	EC50 (cAMP production) [nM]	Ratio (EC50 hCTR / EC50 hAMYR3)
B1	0.207	31
B2	0.149	9
B3	0.164	10
B4	0.192	9
B5	0.132	30
B6	0.418	17

Source: patent US20220204580A1 (AstraZeneca / MedImmune, published 2022)
